We go through three molecules from PMC3489985 (Analytical biochemistry, 2012).

In one data set the target is CpGSTD1 (Culex pipiens, UniProt H9M8E3). The data set is described as follows: spectrophotometric enzyme kinetics. In kind it is biochemical.
Data set [1] has as its system O=[N+]([O-])c1ccc(Cl)c(Cl)c1. The data set can be described thus: spectrophotometric enzyme kinetics. The note with it: 30.0 °C. In kind it is biochemical, Culex pipiens.
Substrate in data set [2]: Cc1cc(=O)oc2ccc(OC(=O)[C@H]3[C@@H](C=C(Cl)Cl)C3(C)C)cc12
The data set can be described thus: fluorescent enzyme kinetics. The format is biochemical, Culex pipiens. The note with it: GSH; 30.0 °C.

Substrate in data set [3]: Cc1cc(=O)oc2ccc(OC(=O)[C@H]3[C@@H](/C=C(\Cl)C(F)(F)F)C3(C)C)cc12
The data set is described as follows: fluorescent enzyme kinetics. In kind it is biochemical, Culex pipiens. The note with it: GSH; 30.0 °C.

Consider `O=[N+]([O-])c1ccc(Cl)c([N+](=O)[O-])c1` [CDNB, 1-chloro-2,4-dinitrobenzene], for which the Km (usually the substrate concentration at which the rate is half of its maximum) on CpGSTD1 came out at 240 ± 18 µM.
As for CpGSTD1 (Culex pipiens), in data set [1], the Michaelis-Menten constant (Km) stood at 691 ± 106 µM; the Vmax (commonly the top rate of the reaction or transport when substrate is in excess) stood at 2.32 ± 0.152 µmol/min/mg; the catalytic constant (kcat) (as a rule, the maximal rate divided by the concentration of active sites) was determined as 0.92 s⁻¹; the kcat/Km (commonly the second-order rate constant that governs catalysis at low substrate concentration) amounted to 1300 M⁻¹ s⁻¹.

B1: CpGSTD1 (Culex pipiens) (protein)
chain: MDFYYLPGSAPCRAVQMTAAAVGVELNLKLTNLMAGEHMKPEFLKLNPQHTIPTLVDNGFSLWESRAIQIYLVEKYGKDDSLYPKDPQKRALVNQRLFFDMGVFYQRFGDYWYPQIFAKQPANADNEKKMQEAVAFLNTFLEGHQYAAGDQLTIADLSLAASAATYEVAGFDFSKYPNVQAWLERCKKNAPGYDLNQAGADEFNAKFLGGK
In the case of B1, in data set [2], the Km was 9.0 ± 0.8 µM, the Vmax was determined as 0.298 µmol/min/mg, the catalytic constant (kcat) was 0.12 s⁻¹ and the specificity constant (kcat/Km) amounted to 13000 M⁻¹ s⁻¹. In data set [3], the Michaelis-Menten constant (Km) amounted to 10.0 ± 0.7 µM, the Vmax came out at 0.487 µmol/min/mg, the catalytic constant (kcat) was found to be 0.19 s⁻¹ and the kcat/Km worked out at 19000 M⁻¹ s⁻¹.
